Measurements reported in PMC6145688.

Molecular target: Recombinant active autotaxin-β (ATXβ), Q13822
Assay: cell adhesion assay; plates coated with recombinant ATXβ; cells in HEPES-buffered Tyrode solution with 2 mM Mn2+, rested 1 h at 37° C, seeded 1 h, attached cells counted; cells preincubated 1 h with blocking antibodies (10 µg/mL) or peptides (50 µg/mL)
Conditions: remark: other sources report otherwise

B1: Integrin αvβ3, P06756 31-1048; P05106 27-788 (receptor)
chain 1: FNLDVDSPAEYSGPEGSYFGFAVDFFVPSASSRMFLLVGAPKANTTQPGIVEGGQVLKCDWSSTRRCQPIEFDATGNRDYAKDDPLEFKSHQWFGASVRSKQDKILACAPLYHWRTEMKQEREPVGTCFLQDGTKTVEYAPCRSQDIDADGQGFCQGGFSIDFTKADRVLLGGPGSFYWQGQLISDQVAEIVSKYDPNVYSIKYNNQLATRTAQAIFDDSYLGYSVAVGDFNGDGIDDFVSGVPRAARTLGMVYIYDGKNMSSLYNFTGEQMAAYFGFSVAATDINGDDYADVFIGAPLFMDRGSDGKLQEVGQVSVSLQRASGDFQTTKLNGFEVFARFGSAIAPLGDLDQDGFNDIAIAAPYGGEDKKGIVYIFNGRSTGLNAVPSQILEGQWAARSMPPSFGYSMKGATDIDKNGYPDLIVGAFGVDRAILYRARPVITVNAGLEVYPSILNQDNKTCSLPGTALKVSCFNVRFCLKADGKGVLPRKLNFQVELLLDKLKQKGAIRRALFLYSRSPSHSKNMTISRGGLMQCEELIAYLRDESEFRDKLTPITIFMEYRLDYRTAADTTGLQPILNQFTPANISRQAHILLDCGEDNVCKPKLEVSVDSDQKKIYIGDDNPLTLIVKAQNQGEGAYEAELIVSIPLQADFIGVVRNNEALARLSCAFKTENQTRQVVCDLGNPMKAGTQLLAGLRFSVHQQSEMDTSVKFDLQIQSSNLFDKVSPVVSHKVDLAVLAAVEIRGVSSPDHVFLPIPNWEHKENPETEEDVGPVVQHIYELRNNGPSSFSKAMLHLQWPYKYNNNTLLYILHYDIDGPMNCTSDMEINPLRIKISSLQTTEKNDTVAGQGERDHLITKRDLALSEGDIHTLGCGVAQCLKIVCQVGRLDRGKSAILYVKSLLWTETFMNKENQNHSYSLKSSASFNVIEFPYKNLPIEDITNSTLVTTNVTWGIQPAPMPVPVWVIILAVLAGLLLLAVLVFVMYRMGFFKRVRPPQEEQEREQLQPHENGEGNSET
chain 2: GPNICTTRGVSSCQQCLAVSPMCAWCSDEALPLGSPRCDLKENLLKDNCAPESIEFPVSEARVLEDRPLSDKGSGDSSQVTQVSPQRIALRLRPDDSKNFSIQVRQVEDYPVDIYYLMDLSYSMKDDLWSIQNLGTKLATQMRKLTSNLRIGFGAFVDKPVSPYMYISPPEALENPCYDMKTTCLPMFGYKHVLTLTDQVTRFNEEVKKQSVSRNRDAPEGGFDAIMQATVCDEKIGWRNDASHLLVFTTDAKTHIALDGRLAGIVQPNDGQCHVGSDNHYSASTTMDYPSLGLMTEKLSQKNINLIFAVTENVVNLYQNYSELIPGTTVGVLSMDSSNVLQLIVDAYGKIRSKVELEVRDLPEELSLSFNATCLNNEVIPGLKSCMGLKIGDTVSFSIEAKVRGCPQEKEKSFTIKPVGFKDSLIVQVTFDCDCACQAQAEPNSHRCNNGNGTFECGVCRCGPGWLGSQCECSEEDYRPSQQDECSPREGQPVCSQRGECLCGQCVCHSSDFGKITGKYCECDDFSCVRYKGEMCSGHGQCSCGDCLCDSDWTGYYCNCTTRTDTCMSSNGLLCSGRGKCECGSCVCIQPGSYGDTCEKCPTCPDACTFKKECVECKKFDRGALHDENTCNRYCRDEIESVKELKDTGKDAVNCTYKNEDDCVVRFQYYEDSSGKSILYVVEEPECPKGPDILVVLLSVMGAILLIGLAALLIWKLLITIHDRKEFAKFEEERARAKWDTANNPLYKEATSTFTNITYRGT
  percent inhibition of DU145 cell adhesion on ATXβ by LM609 (anti-αvβ3): 60%
  percent inhibition of KHOS cell adhesion on ATXβ by LM609 (anti-αvβ3): 15%
